Patent EP4053153A1

Columns and labels:
[1] = target: human transferrin receptor (human) (UniProt P02786); test: MST (Monolith NT.115); His-tag-dye-labelled protein, TfR titrated
[2] = target: mouse transferrin receptor (mouse) (UniProt Q62351); test: as above
Chain of mouse transferrin receptor (mouse) (Q62351 89-763 limits assumed): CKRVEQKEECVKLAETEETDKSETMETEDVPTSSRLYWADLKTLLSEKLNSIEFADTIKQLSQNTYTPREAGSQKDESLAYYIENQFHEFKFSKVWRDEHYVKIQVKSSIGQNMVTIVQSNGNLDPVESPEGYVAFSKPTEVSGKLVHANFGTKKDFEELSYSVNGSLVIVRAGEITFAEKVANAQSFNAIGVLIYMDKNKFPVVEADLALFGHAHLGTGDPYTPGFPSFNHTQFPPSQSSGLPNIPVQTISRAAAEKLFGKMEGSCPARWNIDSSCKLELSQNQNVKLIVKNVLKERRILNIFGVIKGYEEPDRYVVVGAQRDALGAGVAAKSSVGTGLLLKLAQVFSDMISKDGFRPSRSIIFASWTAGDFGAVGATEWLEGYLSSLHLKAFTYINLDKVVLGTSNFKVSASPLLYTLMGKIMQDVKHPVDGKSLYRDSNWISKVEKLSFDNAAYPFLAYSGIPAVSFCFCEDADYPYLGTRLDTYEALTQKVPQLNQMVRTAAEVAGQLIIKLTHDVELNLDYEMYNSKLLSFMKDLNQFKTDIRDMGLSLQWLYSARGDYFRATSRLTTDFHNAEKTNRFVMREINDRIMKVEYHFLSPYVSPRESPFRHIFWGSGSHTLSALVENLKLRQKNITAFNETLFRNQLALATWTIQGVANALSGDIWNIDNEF

Chain of human transferrin receptor (human) (P02786 89-760 limits assumed): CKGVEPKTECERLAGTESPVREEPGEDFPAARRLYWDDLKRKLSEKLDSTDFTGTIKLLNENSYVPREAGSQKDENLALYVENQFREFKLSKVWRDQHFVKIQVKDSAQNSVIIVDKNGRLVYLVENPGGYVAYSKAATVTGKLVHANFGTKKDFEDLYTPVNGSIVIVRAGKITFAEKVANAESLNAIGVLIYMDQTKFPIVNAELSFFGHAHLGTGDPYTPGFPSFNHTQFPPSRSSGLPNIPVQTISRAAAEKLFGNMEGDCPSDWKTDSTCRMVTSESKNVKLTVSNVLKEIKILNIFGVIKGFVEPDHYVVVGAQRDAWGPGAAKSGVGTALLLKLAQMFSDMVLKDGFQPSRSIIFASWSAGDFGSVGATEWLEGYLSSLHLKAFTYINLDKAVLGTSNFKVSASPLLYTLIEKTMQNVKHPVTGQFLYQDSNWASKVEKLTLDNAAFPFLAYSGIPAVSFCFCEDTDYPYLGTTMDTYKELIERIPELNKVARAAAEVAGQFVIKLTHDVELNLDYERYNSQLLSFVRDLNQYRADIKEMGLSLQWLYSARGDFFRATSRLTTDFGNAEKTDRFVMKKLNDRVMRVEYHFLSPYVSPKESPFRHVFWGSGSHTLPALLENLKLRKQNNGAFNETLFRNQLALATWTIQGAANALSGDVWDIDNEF

Kd [1] [nM]	Kd [2] [nM]	Substance
9.78	30.5	DE-gp100-huHF (from UniProt P02794 1-183)
18.5	48.3	N-gp100-huHF (from UniProt P02794 1-183)

Substance	Kd [1] [nM]	Kd [2] [nM]
N-AH1-huHF (from UniProt P02794 1-183)	84.6	
